The sequences below were run on Escherichia coli TOP10 (assay: shrunken log2 fold change of peptide-encoding DNA abundance (4.5 h post-induction vs induction); higher = less antimicrobial activity (less host growth inhibition)). Details: time post-induction: 4.5 h; library: site-saturation at positions 5, 18, 19, 20.
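Further: peptides expressed intracellularly from a pBAD plasmid library in pooled LB shake-flask culture, induced with 0.3% L-arabinose, DNA abundance read by NGS, three biological replicates, DESeq2 with apeglm shrinkage.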

Row | Sequence | shrunken log2 fold change
1 | RRIRWRPPRLPRPRPRPVNHPRP | -0.191
2 | RRIRWRPPRLPRPRPRPVNRPRP | -0.00204
3 | RRIRWRPPRLPRPRPRPVNYPRP | -0.122
4 | RRIRWRPPRLPRPRPRPVPCPRP | -0.00353
5 | RRIRWRPPRLPRPRPRPVQLPRP | 0.034
6 | RRIRWRPPRLPRPRPRPVQPPRP | 0.0708
7 | RRIRWRPPRLPRPRPRPVQRPRP | 0.257
8 | RRIRWRPPRLPRPRPRPVRSPRP | 0.239
9 | RRIRWRPPRLPRPRPRPVSYPRP | -0.131
10 | RRIRWRPPRLPRPRPRPVTNPRP | 0.266
11 | RRIRWRPPRLPRPRPRPVVLPRP | -0.0385
12 | RRIRWRPPRLPRPRPRPWAVPRP | 0.0624
13 | RRIRWRPPRLPRPRPRPWDIPRP | -0.309
14 | RRIRWRPPRLPRPRPRPWDNPRP | -0.00804
15 | RRIRWRPPRLPRPRPRPWFEPRP | -0.0354
16 | RRIRWRPPRLPRPRPRPWKNPRP | 0.0346
17 | RRIRWRPPRLPRPRPRPWLCPRP | -0.0206
18 | RRIRWRPPRLPRPRPRPWLSPRP | -0.0459
19 | RRIRWRPPRLPRPRPRPWMMPRP | 0.119
20 | RRIRWRPPRLPRPRPRPWMTPRP | 0.333
21 | RRIRWRPPRLPRPRPRPWNCPRP | -0.116
22 | RRIRWRPPRLPRPRPRPWNFPRP | -0.188

Row | Sequence | shrunken log2 fold change
23 | RRIRWRPPRLPRPRPRPWREPRP | -0.0969
24 | RRIRWRPPRLPRPRPRPWTAPRP | 0.306
25 | RRIRWRPPRLPRPRPRPWVRPRP | -0.172
26 | RRIRWRPPRLPRPRPRPWWFPRP | 0.0217
27 | RRIRWRPPRLPRPRPRPWWLPRP | 0.162
28 | RRIRWRPPRLPRPRPRPWYCPRP | 0.0408
29 | RRIRWRPPRLPRPRPRPYAPPRP | -0.232
30 | RRIRWRPPRLPRPRPRPYCWPRP | -0.127
31 | RRIRWRPPRLPRPRPRPYFAPRP | -0.216
32 | RRIRWRPPRLPRPRPRPYFLPRP | -0.757
33 | RRIRWRPPRLPRPRPRPYFYPRP | -0.679
34 | RRIRWRPPRLPRPRPRPYGHPRP | -0.478
35 | RRIRWRPPRLPRPRPRPYHLPRP | -0.146
36 | RRIRWRPPRLPRPRPRPYHMPRP | -0.591
37 | RRIRWRPPRLPRPRPRPYHQPRP | -0.0735
38 | RRIRWRPPRLPRPRPRPYHRPRP | -0.201
39 | RRIRWRPPRLPRPRPRPYIGPRP | -0.127
40 | RRIRWRPPRLPRPRPRPYIIPRP | -1.11
41 | RRIRWRPPRLPRPRPRPYIVPRP | -0.727
42 | RRIRWRPPRLPRPRPRPYKGPRP | -0.0487
43 | RRIRWRPPRLPRPRPRPYKSPRP | -0.144
44 | RRIRWRPPRLPRPRPRPYLDPRP | -0.33

Row | Sequence | shrunken log2 fold change
45 | RRIRWRPPRLPRPRPRPYLNPRP | -0.777
46 | RRIRWRPPRLPRPRPRPYNGPRP | -0.668
47 | RRIRWRPPRLPRPRPRPYNIPRP | -0.243
48 | RRIRWRPPRLPRPRPRPYPDPRP | -0.106
49 | RRIRWRPPRLPRPRPRPYPVPRP | 3.67
50 | RRIRWRPPRLPRPRPRPYQNPRP | -0.847
51 | RRIRWRPPRLPRPRPRPYQWPRP | -0.0641
52 | RRIRWRPPRLPRPRPRPYRTPRP | 0.00941
53 | RRIRWRPPRLPRPRPRPYSEPRP | -0.0145
54 | RRIRWRPPRLPRPRPRPYSNPRP | -0.2
55 | RRIRWRPPRLPRPRPRPYSPPRP | -1.1
56 | RRIRWRPPRLPRPRPRPYSTPRP | -0.225
57 | RRIRWRPPRLPRPRPRPYTFPRP | 0.0563
58 | RRIRWRPPRLPRPRPRPYTGPRP | -0.135
59 | RRIRWRPPRLPRPRPRPYTHPRP | -0.536
60 | RRIRWRPPRLPRPRPRPYVNPRP | -0.355
61 | RRIRWRPPRLPRPRPRPYWMPRP | -0.265
62 | RRIRYRPPRLPRPRPRPAACPRP | 0.115
63 | RRIRYRPPRLPRPRPRPAAFPRP | -0.757
64 | RRIRYRPPRLPRPRPRPAAPPRP | 0.726
65 | RRIRYRPPRLPRPRPRPAAYPRP | -0.387
66 | RRIRYRPPRLPRPRPRPACCPRP | -0.405

Row | Sequence | shrunken log2 fold change
67 | RRIRYRPPRLPRPRPRPACHPRP | -0.453
68 | RRIRYRPPRLPRPRPRPACLPRP | -0.211
69 | RRIRYRPPRLPRPRPRPAELPRP | -0.187
70 | RRIRYRPPRLPRPRPRPAESPRP | -0.00136
71 | RRIRYRPPRLPRPRPRPAFMPRP | -0.658
72 | RRIRYRPPRLPRPRPRPAFPPRP | -0.139
73 | RRIRYRPPRLPRPRPRPAFQPRP | -0.00804
74 | RRIRYRPPRLPRPRPRPAHKPRP | 0.00824
75 | RRIRYRPPRLPRPRPRPAIGPRP | -0.105
76 | RRIRYRPPRLPRPRPRPAKHPRP | -0.912
77 | RRIRYRPPRLPRPRPRPAMGPRP | -0.031
78 | RRIRYRPPRLPRPRPRPAMYPRP | -1.14
79 | RRIRYRPPRLPRPRPRPANCPRP | -0.225
80 | RRIRYRPPRLPRPRPRPANRPRP | 0.0126
81 | RRIRYRPPRLPRPRPRPAPTPRP | 0.169
82 | RRIRYRPPRLPRPRPRPAQNPRP | -0.0465
83 | RRIRYRPPRLPRPRPRPARTPRP | -0.298
84 | RRIRYRPPRLPRPRPRPASNPRP | -0.0548
85 | RRIRYRPPRLPRPRPRPASQPRP | -0.08
86 | RRIRYRPPRLPRPRPRPATWPRP | -0.154
87 | RRIRYRPPRLPRPRPRPAVTPRP | -3.6
88 | RRIRYRPPRLPRPRPRPAVWPRP | 0.11

Row | Sequence | shrunken log2 fold change
89 | RRIRYRPPRLPRPRPRPAWAPRP | 0.253
90 | RRIRYRPPRLPRPRPRPAWCPRP | -0.0756
91 | RRIRYRPPRLPRPRPRPAWIPRP | -0.259
92 | RRIRYRPPRLPRPRPRPAWMPRP | -0.0583
93 | RRIRYRPPRLPRPRPRPAWQPRP | 0.0499
94 | RRIRYRPPRLPRPRPRPAYNPRP | -0.638
95 | RRIRYRPPRLPRPRPRPAYSPRP | -0.267
96 | RRIRYRPPRLPRPRPRPCAGPRP | -0.0602
97 | RRIRYRPPRLPRPRPRPCCYPRP | -0.363
98 | RRIRYRPPRLPRPRPRPCFAPRP | -0.521
99 | RRIRYRPPRLPRPRPRPCFLPRP | -1
100 | RRIRYRPPRLPRPRPRPCFTPRP | -0.941
101 | RRIRYRPPRLPRPRPRPCGTPRP | -0.193
102 | RRIRYRPPRLPRPRPRPCHAPRP | -0.702
103 | RRIRYRPPRLPRPRPRPCKHPRP | -0.0625
104 | RRIRYRPPRLPRPRPRPCPGPRP | -0.0926
105 | RRIRYRPPRLPRPRPRPCPTPRP | -0.0225
106 | RRIRYRPPRLPRPRPRPCTIPRP | -0.118
107 | RRIRYRPPRLPRPRPRPCTWPRP | -0.303
108 | RRIRYRPPRLPRPRPRPCVIPRP | 0.0735
109 | RRIRYRPPRLPRPRPRPCVLPRP | -0.00875

From the supplement of paper PMC9112550, “Optimization of the antimicrobial peptide Bac7 by deep mutational scanning” (BMC Biology, 2022)
